# Assay results reported in the supplement of paper PMC7877785.
# ± gives the uncertainty stated by the source.
# Assay: self-splicing fitness, log relative to wild type (ln ratio); higher = more splicing; Tetrahymena group I intron in knt gene, E. coli kanamycin selection, DiMSum; sequences stand for … in CUCUCU…GGAGGGAAAAGUUAUCAGGCAUGCACCUGGUAGCUAGUCUUUAAACCAAUAGAUUGCAUCGGUUUAAAAGGCAAGACCGUCAAAUUGCGGGAAAGGGGUCAACAGCCGUUCAGUACCAAGUCUCAGGGGAAACUUUGAGAUGGCCUUGCAAAGGGUAUGGUAAUAAGCUGACGGACAUGGUCCUAACCACGCAGCCAAGUCCUAAGUCAACAGAUCUUCUGUUGAUAUGGAUGCAGUUCACAGACUAAAUGUCGGUCGGGGAAGAUGUAUUCUUCUCAUAAGAUAUAGUCGGACCUCUCCUUAAUGGGAGCUAGCGGAUGAAGUGAUGCAACACUGGAGCCGCUGGGAACUAAUUUGUAUGCGAAAGUAUAUUGAUUAGUUUUGGAGUACUCGUGGUCG
# Outline: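 Pooled colonies went to amplicon sequencing on an Illumina HiSeq 2500 after six replicate transformations. The plates were LB agar with 100 μg/mL carbenicillin, 50 μM IPTG and 0.2% rhamnose, with or without 25 μg/mL kanamycin, incubated overnight at 37°C or 30°C. The E. coli BL21(DE3) library had all eight P1ex-region intron nucleotides randomised, the intron placed in the knt kanamycin-resistance gene on pET-22b(+). DiMSum fitness is the error-weighted combination of replicate fold changes, kanamycin against none, normalised to wild type.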
Sequence,self-splicing fitness (ln) (30 °C),self-splicing fitness (ln) (37 °C)
UUCUAGCAAUAUUACGAUGA,-0.819 ± 0.19,-0.0657 ± 0.2
CGCAAGCAAUAUUACGGAUU,-4.84 ± 0.34,-1.5 ± 0.19
CAAAAGCAAUAUUACGUCGG,-0.932 ± 0.073,-0.25 ± 0.1
UAGGAGCAAUAUUACGUAUC,-1.71 ± 0.2,–
GAUCAGCAAUAUUACGGACA,-0.118 ± 0.089,0.127 ± 0.11
UUCUAGCAAUAUUACGACUA,-1.83 ± 0.31,-1.19 ± 0.21
CAGUAGCAAUAUUACGCGAC,–,-1 ± 0.32
UCGCAGCAAUAUUACGCGCA,-0.382 ± 0.091,-0.601 ± 0.078
CCCAAGCAAUAUUACGCUGG,-3.55 ± 0.19,-2.52 ± 0.19
UUCCAGCAAUAUUACGGAAA,-1.86 ± 0.13,-1.34 ± 0.11
GACCAGCAAUAUUACGUUUG,-2.55 ± 0.073,-1.42 ± 0.081
CGACAGCAAUAUUACGGCUU,-3.12 ± 0.16,-1.6 ± 0.14
ACCAAGCAAUAUUACGGUAG,-4.33 ± 0.16,-2.5 ± 0.14
CUGCAGCAAUAUUACGAUUA,-3.35 ± 0.28,-2.32 ± 0.16
UCGUAGCAAUAUUACGGCAG,-2.75 ± 0.13,-2.07 ± 0.15
AAGAAGCAAUAUUACGUGCC,-1.01 ± 0.11,-1.14 ± 0.11
GUAAAGCAAUAUUACGUGAU,-2.02 ± 0.085,-1.52 ± 0.12
GAUAAGCAAUAUUACGGAUU,-3.19 ± 0.14,-1.91 ± 0.12
AUAUAGCAAUAUUACGCUAG,-1.69 ± 0.25,-1.19 ± 0.3
UCCGAGCAAUAUUACGAGGG,-4.27 ± 0.25,-1.93 ± 0.22
CACCAGCAAUAUUACGUCGA,-1.89 ± 0.086,-0.942 ± 0.088
CCUCAGCAAUAUUACGAUGA,-2.63 ± 0.21,-2.8 ± 0.28
GCGGAGCAAUAUUACGAUGA,-3.1 ± 0.23,-2.23 ± 0.26
ACCGAGCAAUAUUACGUCGA,-3.13 ± 0.24,-2.12 ± 0.15

Sequence,self-splicing fitness (ln) (30 °C),self-splicing fitness (ln) (37 °C)
AACCAGCAAUAUUACGCUCA,-0.325 ± 0.049,0.493 ± 0.072
GAACAGCAAUAUUACGGAUG,-2.79 ± 0.16,-2.29 ± 0.14
AACUAGCAAUAUUACGUAGG,-2.36 ± 0.11,-1.29 ± 0.12
CGUGAGCAAUAUUACGUCUU,-2.26 ± 0.27,–
GAAGAGCAAUAUUACGUUAC,-2.82 ± 0.17,-2.7 ± 0.2
AGCUAGCAAUAUUACGCCAC,-3.18 ± 0.32,-2.45 ± 0.42
UAUAAGCAAUAUUACGGGGG,-3.88 ± 0.29,-3.09 ± 0.24
ACAAAGCAAUAUUACGAAUA,-3.62 ± 0.29,-1.95 ± 0.17
AGCUAGCAAUAUUACGCACU,-1.19 ± 0.1,-0.466 ± 0.13
CAACAGCAAUAUUACGAGGC,-3.79 ± 0.36,-1.77 ± 0.18
GGCGAGCAAUAUUACGGGUU,-2.52 ± 0.15,-1.32 ± 0.13
AGGGAGCAAUAUUACGGACU,-1.03 ± 0.16,0.483 ± 0.22
CAACAGCAAUAUUACGUUCC,-2.46 ± 0.096,-2.02 ± 0.12
GUCUAGCAAUAUUACGCGGG,-3.1 ± 0.19,-1.98 ± 0.17
ACCGAGCAAUAUUACGAAGC,-3.47 ± 0.36,-2.76 ± 0.36
AAAGAGCAAUAUUACGGGCA,-2.45 ± 0.2,-1.42 ± 0.24
AAGCAGCAAUAUUACGCUCG,-1.67 ± 0.15,0.286 ± 0.14
AUAGAGCAAUAUUACGCACG,-1.57 ± 0.18,-0.997 ± 0.23
GUUGAGCAAUAUUACGACUU,-2.53 ± 0.2,-1.92 ± 0.21
CUUCAGCAAUAUUACGCUUG,-2.94 ± 0.14,-1.22 ± 0.12
CUGGAGCAAUAUUACGGCAC,-3.28 ± 0.32,-2.35 ± 0.39
UACCAGCAAUAUUACGGAGG,-2.34 ± 0.12,-0.914 ± 0.12
AAUCAGCAAUAUUACGCUAC,-2.83 ± 0.23,-2.22 ± 0.27
UCGAAGCAAUAUUACGAAGG,-1.84 ± 0.21,-2.47 ± 0.33
